# Earlier results as cited in paper PMC2647589.
# Target: MeTRH (UniProt P20396)
# Sequence of UniProt P20396 (P20396 whole entry, looked up): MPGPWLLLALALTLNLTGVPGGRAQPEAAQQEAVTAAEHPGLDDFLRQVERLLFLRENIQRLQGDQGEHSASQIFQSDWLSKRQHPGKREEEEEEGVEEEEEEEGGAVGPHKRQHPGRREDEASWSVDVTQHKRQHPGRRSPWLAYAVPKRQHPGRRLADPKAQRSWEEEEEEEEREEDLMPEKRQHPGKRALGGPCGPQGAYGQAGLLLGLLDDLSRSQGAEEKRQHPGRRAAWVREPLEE
substance,measurement,value
TRH receptor (from UniProt P21761),Kd,2 nM
